Data set [1] in a line: CD thermal melt, homodimer, 150 mM KCl.
The nature of data set [2]: thermal melting curve, homodimer (FIG. 4).
Data set [3] in a line: thermal melting curve, homodimer (FIG. 4). The source holds these as a separate data set.
Data set [4] in a line: CD thermal melt, homodimer, low salt (50 mM KCl).
A short description of data set [5]: CD thermal melt, homodimer.
The nature of data set [6]: thermal melting curve, homodimer (FIG. 3).
A short description of data set [7]: thermal melting curve, homodimer (FIG. 3). This is another data set of the same source.

B1: 3heptad-F (protein)
chain: ASMTGGQQMGRDPGGGLARENEELEKEAEELEQENAELEQEVLELESRNDRLRKEVEQLERELDTLRGIFRQLPESSLVKAMGNCA
With B1, the midpoint of thermal melting (Tm) in data set [1] turned out to be 28.3 °C.

B2: 4heptad-Fos (c-Fos with the basic region replaced by four acidic heptad repeats) (protein)
chain: MASMTGGQQMGRDPDLEQRAEELARENEELEKEAEELEQENAELEAETDQLEDEKSALQTEIANLLKEKEKLEFILAAHRPACKIP
For the protein B2, the melting temperature (Tm) result in data set [2] is “homodimerization of acidically modified c-Fos ... had a melting temperature of 25 °C”.

B3: c-Jun (unmodified) (protein, from a related filing)
chain: PLSPIDMESQERIKAERKRMRNRIAASKCRKRKLERIARLEEKVKTLKAQNSELASTANMLREQVAQLKQKVMNHVNSGCQLMLTQQLQTF
As to B3, in data set [3], the midpoint of thermal melting (Tm) result is “homodimerization of unmodified c-Jun had a melting temperature of 29.4 °C”.

B4: 2heptad-F (protein)
chain: ASMTGGQQMGRDPGGGLEKEAEELEQENAELEQEVLELESRNDRLRKEVEQLERELDTLRGIFRQLPESSLVKAMGNCA
Take B4: in data set [1], the midpoint of thermal melting (Tm) was 24.8 °C.

B5: C/EBP bZIP domain (chimeric GCN4-C/EBP protein) (protein)
chain: SEYQPSLFALNPMGFSPLDGSKSTNENVSASTSTAKPMVGQLIFDKFIKTEEDPGKAKKSVDKNSNEYRVRRERNNIAVRKSRDKAKQRNVETQQKVLELTSDNDRLRKRVEQLSRELDTLRGIFRQLPESSLVKAMGNCA
With B5, the Tm in data set [4] is 45.8 °C; in data set [1], 49.5 °C. In addition, the “fall of Tm in 50 mM KCl against 150 mM KCl” value in data set [5] was “less stable by 4 °C in 50 mM KCl compared with 150 mM KCl”.

B6: 0heptad-F (F zipper with the basic region deleted) (protein)
chain: ASMTGGQQMGRDPGGGTQQEVLELESRNDRLRKEVEQLERELDTLRGIFRQLPESSLVKAMGNCA
Turning to B6, the Tm in data set [1] is 30 °C.

B7: 4heptad-F (protein)
chain: ASMTGGQQMGRDPGGGLEQRAEELARENEELEKEAEELEQENAELEQEVLELESRNDRLRKEVEQLERELDTLRGIFRQLPESSLVKAMGNCA
For the protein B7, the Tm in data set [1] was found to be 15.2 °C.

B8: GBF-C/EBP chimeric protein (GBF basic region on the C/EBP leucine zipper) (protein)
chain: PVKDERELKRQKRKQSNRESARRSRLRNEAECEQTQQKVLELTSDNDRLRKRVEQLSRELDTLRGIFRQLPESSLVKAMGNCA
As to B8, in data set [1], the midpoint of thermal melting (Tm) worked out at 50.2 °C. In addition, the “difference of homodimer Tm from C/EBP” value in data set [5] was “as homodimers showed a Tm within 1 °C of C/EBP”.

B9: 1heptad-F (protein)
chain: ASMTGGQQMGRDPGGGLEQENAELEQEVLELESRNDRLRKEVEQLERELDTLRGIFRQLPESSLVKAMGNCA
Turning to B9, in data set [1], the Tm turned out to be 29 °C.

B10: 4heptadCREB (CREB with 4 heptad repeats appended at the amino terminus) (protein)
chain: ASMTGGQQMGRDPDLEQRAEELARENEELEKEAEELEQENAELENRVAVLENQNKTLIEELKALKDLYCHKSD
In the case of B10, the Tm entry in data set [6] is “(4heptadCREB homodimerization) is 22 °C”.

B11: VBP-C/EBP chimeric protein (VBP basic region on the C/EBP leucine zipper) (protein)
chain: ASMTGGQQMGRDPLEEKVFVPDEQKDEKYWTRRKKNNVAAKRSRDARRLKENQTQQKVLELTSDNDRLRKRVEQLSRELDTLRGIFRQLPESSLVKAMGNCA
Turning to B11, in data set [1], the Tm came to 50 °C. Also, the “difference of homodimer Tm from C/EBP” value in data set [5] is “as homodimers showed a Tm within 1 °C of C/EBP”.

B12: CREB (unmodified) (protein, from a related filing)
chain: MASSPALPTQPAEEAARKREVRLMKNREAARECRRKKKEYVKCLENRVAVLENQNKTLIEELKALKDLYCHKSD
For B12, the midpoint of thermal melting (Tm) entry in data set [7] was “the melting temperature of unmodified CREB homodimerization is 47 °C”.
